Measured values: US20240218057A1 (ROCKEFELLER UNIVERSITY, published 2024)
Positions count from the first letter of the chain named.

B1: C939 (antibody, V domains shown)
VH: QVQLVESGGGVVQPGRSLRLSCAASGFTFSSYAMHWVRQAPGKGLESVALISHDGSNKYHADSVKGRLTISRDTSKNTLYLQMDSLRPEDTAVYYCASGLLWFETAGGSGAPDYGMAVWGQGTTVTVSS
VL: DIQMTQSPSSLSASVGDRVTITCRASQSISTYLNWYQQKPGRAPKFLIYAASSLQSGVPSRFSGSGSGTDFTLIISGLQPEDFATYFCQQSYNTPLTFGGGTKVEIK
B2: C935 (antibody, V domains shown)
VH: QVQLVESGGGVVQPGRSLRLSCAATGFTFSSYGMHWVRQAPGKGLEWVALIWYDGSNQYYVDSVKGRFTISRDNSKKTLYLQMNSLRVEDTAVYYCARDFSNSDMVTLSDAFDIWGQGTMVTVSS
VL: DIQLTQSPSFLSASVGDRVTIACRASQGISSYSSYLAWYQQKPGKAPKLLIYAASTLQSGVPSRFSGSGSGTEFTLTISSLQPEDFATYYCQQLNSYPLFTFGPGTKVDIK
B3: C947 (antibody, V domains shown)
VH: QVQLQESGPGLVRPSGTLSLTCAVTGGSISSSDCWSWVRQPPGKGLEWIGEICHGRTSNYNPSLKSPVSISVDKSKNQFSLILSSVTAADKAVYYCARSSRFLPPLPDAFDLWGQGTMVTVSS
VL: QSVLTQPPSVSGAPGQRVTISCTGSSSNIGAGYDVHWYKQLPGTAPKLLIYGNTNRPSGVPGRFSGSKSGTSASLAITGLQAEDEADYFCQSYDTRLSVVFGGGTKLT
B4: C050 (antibody, V domains shown)
VH: EVQLVESGGGLFQPGGSLRLSCAASGFSVRNNYVSWVRQAPGKGLEWVSVIYSGGTTYYADSVKGRFTISRDISENTLYLQMNSLRAEDTAVYYCAREGDVEGLHDFWSGYSRDRYYFDYWGQGTLVTVSS
VL: QSALTQPASVSGSPGQSIIISCTGTSGDIGGYNYVSWYQQHPGKAPKLMIYDVSFRPSGVSNRFSGSKSDNTASLTISGLQAEDEADYYCSSFTGNNTRVFGTGTKVTVL
B5: C053 (antibody, V domains shown)
VH: B4 VH with F12I, S28I, R30S, V34M, E46D, I73N, E75K, L104Y, F107S
VL: QSALTQPASVSGSPGQSITISCTGSSSDVGGYNFVSWYQQHPGRAPKLMIYDVSNRPSGVSNRFSGSKSGNTASLTISGLQVEDEADYYCSSYTNNNTRVFGTGTKVTVL
B6: C052 (antibody, V domains shown)
VH: EVQLVESGGGLIRPGGSLRLSCAASGFSVSNNYMSWVRQAPGKGLEWVSVIYSGGTTYYADSVKGRFNISRDNSKNTVYLQMNSLRAEDTAVYYCAREGDVEGYYDFWSGYSRDRYYFDYWGQGALVTVSS
VL: B5 VL with S25T, F34Y, R44K, V82A, S91N, N95S
B7: C054 (antibody, V domains shown)
VH: B6 VH with R13Q, S28T, T56S, Y59D, N68T, V78L, R86S, A125T
VL: B5 VL with S25T, F34Y, R44K, V82A, N95S, N96S, N97S, T98A
B8: C945 (antibody, V domains shown)
VH: QVQLVQSGAEVKKPGASVRISCKASGYTFTNYYMHWVRQAPGQGLEWMGIINPSGGSTTYAPKFQARVTMTRDTSTSTVYMELSSLRSDDTAVYYCARDYVLVPARSGMDVWGQGTTVTVS
VL: EIVLTQSPATLSLSPGERATLSCRASQSVSSYLAWYQQKPGQAPRLLIYDASNRATGIPARFSGSGSGTDFTLTISSLEPEDFAIYYCQQRSNWPYTFGQGTKLEIK
B9: C946 (antibody, V domains shown)
VH: QVQLVQSGAEVKKPGASVKVSCKASGYTFTNYYIHWVRQAPGQGLEWMGIINPDGDSTSYVQKFQGRVTMTRDTSTSTVYMELSSLRSEDTAVYYCARDLVFVPATSAMDVWGKGTTVTVSS
VL: B8 VL with I85V, P95L, Y96F, Q100P, L104V, E105D
B10: C942 (antibody, V domains shown)
VH: QVQLVESGGGVVQPGRSLRLSCAASGFTFSSYVMHWVRQAPGKGLEWVAIISSDGNTKYYADSVKGRFTISRDNSKNTLYLQMNSVRTDDTAVYYCARDGTTMTPTDLLTDWGQGTLVTVSS
VL: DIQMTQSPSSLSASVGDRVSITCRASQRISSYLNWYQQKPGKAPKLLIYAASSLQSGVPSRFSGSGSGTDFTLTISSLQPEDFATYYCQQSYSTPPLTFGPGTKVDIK
B11: C051 (antibody, V domains shown)
VH: B6 VH with R13Q, P14A, S28G, S30R, N68T, Y79F, Y104F, Y105S, F107L, A125T
VL: QSALTQPASVSGSPGQSITFSCTGTSSDVGGYNYVSWYQQYPGKAPKLLIYDVTNRPSGVSDRFSGSKSGNTASLTISGLQAEDEADYYCSSFTSSNTRVFGTGTKVTVL
B12: C940 (antibody, V domains shown)
VH: QVQLQESGSGLVKPSQTLSLTCAVSGGSASSGGYSWSWIRQPPGKGLEWIGYIYHSGSTYYNPSLKSRVTISLDRTKKQFSLKLSSVTAADTAVYYCARFCLSGSHYLFAFDIWGPGTMVTVSS
VL: QSALTQPASVSGSPGQSITISCTATSSDVGGYNFVSWYQQYPGKVPKLLIYDVGNRPSGVSNRFSGSKSGNTASLTISGLQAEDEADYYCSSYTNSSTFFGGGTKLTVL
B13: C948 (antibody, V domains shown)
VH: EVQLVESGGGLVQPGGSLRLSCAASGFTFSRYDMHWVRQATGKGLEWVSIIGTAGDTYYPGSVKGRFTISRDNAKNSLFLQMNSLRAGDTAVYYCARANYDSSGYHNWFDPWGQGTLVTVSS
VL: DIQMTQSPSSLSASIGDRVTITCRASQNINSYLNWYQQKPGKAPKLLIYAASSLQSGVPSRFSGSGSGTDFTLTINSLQPEDFATYYCQQSYSMPSWTFGQGTKVEI
B14: C062 (antibody, V domains shown)
VH: EVQLVESGGGLVKPGGSLRLTCAASGFTFSTYSMNWVRQAPGKGLEWVSSISSSSSYIYYADSVKGRFTISRDNAKNSLYLQMNSLRAEDTAVYYCARERGYYGGKTPPFLGGQGTLVTVSS
VL: NFMLTQPHSVSESPGKTVTISCTGSSGSIASNYVQWYQQRPGSAPTTVIYEDNQRPSGVPDRFSGSIDSSSNSASLTISGLKTEDEADYYCQSYDSSNYWVFGGGTKLTVL
B15: C045 (antibody, V domains shown)
VH: EVQLVESGGGLVQPGGSLRLSCAASGFTFSTYSMNWVRQAPGKGLEWVSYISSSSSTIHYADSVKGRFTISRDNAKNSLYLQMNSLRDEDTAVYYCAREAHDGALTDYGDYLNWFDPWGQGTLVTVSS
VL: SYELTQPPSVSVAPGKTARITCGGTNIGSKNVHWYQQKPGQAPVLVIYYDNDRPSGIPERFSGSNSGNTATLTISRVEAGDEADYYCQVWDTTSDHFYWVFGGGTKLTVL
B16: C943 (antibody, V domains shown)
VH: QVQLVESGGGVVQPGRSLRLSCAASGFPFSSFGMHWVRQAPGRGLEWVALILYDGDNKYYADSVKGRFTISRDNSKNTLYLQMNSLRAEDTAVYYCAKDIGGGSSPPFFDYWGQGTLVTVSS
VL: SYELTQAPSVSLAPGKTARITCGENNIGSKSVHWYQQKPGQAPVLVIYYDSDRPSGIPERFSGSNSGNTATLTISRVEAGDEADYYCQVWDSSSDHVMFGGGTKLTVL
B17: C949 (antibody, V domains shown)
VH: QVQLQESGPGLVKPLQTLSLTCTVSGGSISNGDYYWSWIRQSPGKGLEWIGNIFYSGATYFNPSLKSRVTLSVDTSKNQFSLKLSSVTAADTAVYYCARVVRVLPAASVDCWGQGTLVTVSS
VL: QSALTQPRSVSGSPGQSVPISCTGTSSDVGGYDYVSWYQQHPGKAPKLIIYDVSERPSGVPDRFSGSKSGNTASLTISGLQAEDEATYYCCSYAGTSVMFGGGTKLTVL
B18: C944 (antibody, V domains shown)
VH: QVQLVESGGGVVQPGRSLRLSCAASGFTFSSYGMHWVRQAPGKGLEWVAVISYDGSYKYYADSVKGRFTISRDNSKNTLYLQMNSLRAEDTAVYYCAKGSGSQLYYYYGMDVWGQGTTVTVSS
VL: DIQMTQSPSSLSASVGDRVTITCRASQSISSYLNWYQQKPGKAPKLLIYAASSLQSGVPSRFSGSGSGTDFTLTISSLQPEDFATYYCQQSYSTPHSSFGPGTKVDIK
B19: C058 (antibody, V domains shown)
VH: QVQLVQSGAEVKKPGASVKVSCKASGYIFTDYSMHWVRQAPGQGLEWIGWVNPNSGGTNYAQKFQGWVTMARDTSITTVYMELSRLKSDDTAVYFCARGPLFHRLVYDFWSGYHDGFDMWGQGTMVTVSS
VL: QSALTQPASVSGSPGQSITISCTGTSSDVGGYKFVSWYQQHPGKAPKLMIYEVSNRPSGVSNRFSGSKSGNTASLTISGLQAEDEADYYCNSYTSSSTWVFGGGTKLTVL
B20: C059 (antibody)
chain 1: QVQLVQSGAEVKKPGASIKVSCKASGYTFTDYSMHWVRQAPGQGLEWMGWINPNSGGTKYAQKFQGWVTMTRDMSITTVYMELTRLRSDATAVFYCARGPLFHKLVYDSWTGYHDGFDIWGQGTMVTVSS
chain 2: B19 VL with K33N, F34Y, Q40H, H41Y, S54T, N55H, N91S, Y93S, S95N, L107M
B21: C057 (antibody, V domains shown)
VH: QVQLVQSGAEVKRPGASVKLSCKASGYIFTDYSIHWVRQAPGQGLEWMGWVNPNSGGGNSAQKFMDWVTMARDTSITTVYMELSRLRSDDTAVYYCARGPLFHKLVYDSWSGYHDGFDIWGQGTMVTVSS
VL: B19 VL with G31A, K47Q, M49I, N91S, S95N, S96A, K106E
B22: C941 (antibody, V domains shown)
VH: QVQLVQSGAEVKKPGSSVKVSCKASGGTSRSYPISWVRQAPGQGLEWMGRIIPIVGTANYAQRFQGRVTITADESTGTAYMELSSLRSEDTAVYYCARNRGYSDYGSVYYFDYWGQGTLVTVSS
VL: QSVLTQPPSVSGAPGQRVTISCTGSSSNIGAGYDVHWYQQLPGAAPKLLIYRNINRPSGVPDRFSGSKSGTSASLAITGLQADDEADYYCQSYDSSLSGSVFGGGTKLTV
B23: C913 (antibody, V domains shown)
VH: EVQLVESGGVVVQPGGSLRLSCAASGFTFDDYSMHWVRQVPGKGLEWIAVIFWDGTSTYYADSVKGRFTISRDNSKKSLYLQMNSLRSEDTALYYCAKDSEDCSSTSCYVDHWGQGTLVTVSS
VL: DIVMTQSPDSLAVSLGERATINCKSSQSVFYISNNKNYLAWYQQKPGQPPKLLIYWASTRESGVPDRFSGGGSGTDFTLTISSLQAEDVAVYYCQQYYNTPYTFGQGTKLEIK
B24: C926 (antibody, V domains shown)
VH: QVQLVESGGGVVQPGRSLRLSCAASGFGLITYSMHWVRQAPGKGLEWVGLISFDGNTTYYADSVRGRFTISRDNLANILYLQMNSLRPDDTALYYCARDKRGVIRGLLNFWGQGSLVTVSS
VL: DIVMTQSPDSLAVSLGERATINCKSSQSLLPSSNSNNYLAWYQQKSGQPPNLLIYWASTRESGVPDRFSGSGSETDFSLTISNLQAEDVAVYYCQQYYNTPHTFGGGTKVEI
B25: C951 (antibody, V domains shown)
VH: QVQLQESGPRLVKPSGTLSLTCAVSGGSISTTNWWSWVRQPPGKGLEWIGEIHHSGNTNYNPSLKSRVTISVDRSKNQFSLKLSSVTAADTAVYFCARDGGRPGDPFDIWGQGTMVTVSS
VL: QSALTQPASVSGSPGQSITISCTGTSSDVGGYNYVSWYQQHPGKAPNLMIYDVSDRPSGVSNRFSGSKSGNTASLTISGLQAEDEADYYCNSFTSNSTRVFGTGTKVTV

What was measured:
SARS-COV-2 RBD [1] = target: T1, SARS-COV-2 RBD (SARS-COV-2, UniProt P0DTC2 319-539); assay: ELISA, RBD coated on plate
T1 construct: also called WT RBD

SARS-COV-2 RBD [2] = target: SARS-COV-2 RBD (SARS-COV-2, UniProt P0DTC2 319-539); assay: ELISA, RBD coated

Binder	EC50 (SARS-COV-2 RBD [1]) [ng/mL]	EC50 (SARS-COV-2 RBD [2]) [ng/mL]
B1	3.62	–
B2	2.86	–
B3	2.08	–
B4	–	193
B5	–	1.53
B6	–	1.23
B7	–	1.58
B8	3.13	–
B9	3.82	–
B10	2.13	–
B11	–	1.65
B12	1.8	–
B13	3.26	–
B14	–	4.69
B15	–	7
B16	2.59	–
B17	2.33	–
B18	1.71	–
B19	–	2.28
B20	–	1.88
B21	–	2.31
B22	1.92	–
B23	2.58	–
B24	4.72	–
B25	0.81	–
